The values below come from FireProtDB (doi:10.1046/j.1432-1327.1999.00918.x).

“And” between values parts separate entries of the source, which are not always exact repeats. Identical values can stand only once.

B1: Lysozyme C, P61626 (parent)
chain: MKALIVLGLVLLSVTVQGKVFERCELARTLKRLGMDGYRGISLANWMCLAKWESGYNTRATNYNAGDRSTDYGIFQINSRYWCNDGKTPGAVNACHLSCSALLQDNIADAVACAKRVVRDPQGIRAWVAWRNRCQNRDVRQYVQGCGV

Variants of B1 are the subject of this data set. Conditions: Homo sapiens, Thermal, DSC, glycine 0.05 M, reversible: yes, structure 1LZ1, whole UniProt chain shown.

One may read the Tm as the temperature at the midpoint of the melting transition. On to K19A, for which, under “pH 2.58”, the Tm worked out at 60.9 °C, the “unfolding enthalpy (calorimetric)” value was determined as 90.6 kcal/mol and the “unfolding enthalpy (van 't Hoff)” value was found to be 98.7 kcal/mol. Besides, under “pH 2.7”, the Tm came to 62.7 °C; the “change of melting temperature, mutant - wild type (higher = more stable)” value was -2.2 °C; the “heat capacity change of unfolding” value worked out at 1.6 kcal/mol/K; the “unfolding enthalpy (calorimetric)” value was found to be 96.8 kcal/mol. In addition, where the note is “pH 2.77”, the Tm was 63.7 °C, the “unfolding enthalpy (calorimetric)” value is 95.1 kcal/mol and the “unfolding enthalpy (van 't Hoff)” value turned out to be 99.4 kcal/mol.

K19M: where the note is “pH 2.5”, the Tm was 61.7 °C, the “unfolding enthalpy (calorimetric)” value stood at 88.4 kcal/mol and the “unfolding enthalpy (van 't Hoff)” value came to 90.1 kcal/mol. The “ddG of mutation (higher = less stable)” value (pH 2.7, 64.9 °C) came out at 0.12 kcal/mol. Moreover, under “pH 2.7”, the Tm was 64.4 °C and 64.9 °C; the “change of melting temperature, mutant - wild type (higher = more stable)” value was -0.5 °C; the “heat capacity change of unfolding” value was 1.03 kcal/mol/K; the “unfolding enthalpy (calorimetric)” value worked out at 91.8 kcal/mol. In addition, under “pH 2.95”, the Tm came out at 69.1 °C, the “unfolding enthalpy (calorimetric)” value worked out at 95.4 kcal/mol and the “unfolding enthalpy (van 't Hoff)” value stood at 97.5 kcal/mol. In addition, for the setting “pH 3.22”, the Tm was 70.1 °C, the “unfolding enthalpy (calorimetric)” value came to 98.5 kcal/mol and the “unfolding enthalpy (van 't Hoff)” value was determined as 106 kcal/mol.
